Patent US20120156203A1 (Genentech, published 2012)

B1: anti-IL13 monoclonal antibody 228B/C-1 (antibody, V domains shown)
VH: QVQLQESGPGLVAPSQSLSITCTVSGFSLNAYSVNWVRQPPGKGLEWLGMIWGDGKIVYNSALKSRLNISKDSSKSQVFLKMSSLQSDDTARYYCAGDGYYPYAMDNWGHGTSVTVSS
VL: NIVLTQSPASLAVSLGQRATISCRASKSVDSYGNSFMHWYQQKPGQPPKLLIYLASNLESGVPARFSGSGSRTDFTLTIDPVEADDAASYYCQQNNEDPRTFGGGTKLEIK
B2: chimeric Fab of 228B/C (Fab, V domains shown)
VH: B1 VH
VL: B1 VL
modifications: Used labeled in the competition assay of paragraph 260; the label is not named.
notes: also called chimeric clone
B3: anti-IL13 monoclonal antibody 227-26 (antibody, V domains shown)
VH: QVQLQQSGDDLVLPGASVKLSCKASGYTFTSYWINWIKQRPGQGLEWIGHIAPGSGSTYFNEMFKGKATLTVDTSSSTAYIQLSSLSSEDSAVYFCARSDIFLSYAMDYWGQGTSVTVSS
VL: DVLMTQTPLSLPVSLGDQASISCRSSQSIVHSNGNTYLQWYLQKPGQSPKLLIYKVSNRFSGVPDRFSGSGSGTDFTLKISRVEAEDLGVYYCFQGSHVPYTFGGGTKLEIK
notes: also called hybridoma ATCC PTA-5654

What was measured:
[1] = target: T1, human IL13 (human, UniProt P35225 35-146); test: cell-based or functional assay
T1 sequence (P35225 other isoform, or with tags, fused parts or gaps limits assumed): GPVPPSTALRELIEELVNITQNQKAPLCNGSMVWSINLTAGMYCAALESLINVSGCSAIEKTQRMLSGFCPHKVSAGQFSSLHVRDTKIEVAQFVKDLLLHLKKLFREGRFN

[2] = target: T1, human IL13; test: ELISA; wells coated with E. coli expressed non-glycosylated human IL13 (0.1 µg/mL); bound MAb detected with HRP-goat anti-mouse IgG (Fc); OD 450 nm
Method: (§1) The reactivity of various anti-IL13 monoclonal antibodies was tested by ELISA. Different wells of 96-well microtest plates were coated with either E. coli expressed non-glycosylated human IL13 (R&D Systems), 293T cell expressed glycosylated MT-IL13/Fc, or E. coli expressed mouse IL13 (R&D Systems) by the addition of 100 μL of IL13 protein at 0.1 μg/mL in PBS. After overnight incubation at room temperature, the wells were treated with PBSTB (PBST containing 2% BSA) to saturate the remaining binding sites. The wells were then washed with PBST.
(§2) One hundred microliters of two-fold serially diluted anti-IL13 MAbs (0.5 μg/mL (3.33 nM) to […] (0.00033 nM)) were added to the wells for 1 hour at room temperature. An anti-IL13 MAb JES-5A2 from (BD Biosciences-Pharmingen, San Diego, Calif.) was also tested as a positive control. This antibody was generated by using E. coli expressed human IL13 as immunogen. An isotype-matched mouse anti-HIV-1 gp120 MAb was used as irrelevant negative control. The wells were then washed with PBST. Bound antibody was detected by incubation with diluted HRP-goat anti-mouse IgG (Fc) (Jackson ImmunoResearch) for 1 hour at room temperature. Peroxidase substrate solution was then added for color development as described above. The OD₄₅₀ was measured using an ELISA reader.

[3] = target: T2, 12-mer peptide of human IL13, YCAALESLINVS (human, synthesized via SPOT on cellulose membrane); test: peptide spot analysis on cellulose membrane
T2 peptide: YCAALESLINVS
Description: This epitope was further confirmed by peptide spot analysis. The entire human IL13 peptide was scanned with a series of overlapping 12-mer peptides synthesized via SPOT on cellulose membrane. The only anti-IL13 MAb reactive peptide was identified as a 12-mer peptide of amino acid #44-56, […] (SEQ ID NO 19), which is overlapping with the region identified through domain swapping experiments.

[4] = target: T3, IL-13 (antigen captured on the plate in the Fab ELISAs of Examples 9 and 10) (UniProt P35225 35-146); test: ELISA; IL-13 captured on the plate in a limiting amount; Fab titrated 1:3; detected with a secondary antibody specific for Fab; A 560 nm
T3 construct: also called the antigen IL-13
T3 sequence (P35225 35-146 limits assumed): as the sequence (P35225 other isoform, or with tags, fused parts or gaps limits assumed) above, with R110Q counted along it

[5] = target: T3, IL-13 (antigen captured on the plate in …); test: competition ELISA; IL-13 captured on the plate; purified Fab pre-mixed with a constant concentration of labeled chimeric anti-IL-13 Fab (228 B/C #3); Abs 590 nm of bound labeled Fab
Method: To confirm that these combinatorial candidates maintained function, a competition assay was performed. For this assay, IL-13 was captured on an ELISA plate. The candidates, which are purified Fabs, were pre-mixed in varying concentrations to a constant concentration of labeled chimeric anti-IL-13 Fab. This mixture was added to the ELISA plate. The labeled chimeric anti-IL-13 capable of binding to the plate-bound IL-13 were detected.

[6] = target: T3, IL-13 (antigen captured on the plate in …); test: ELISA; IL-13 captured on the plate in a limiting amount; Fab titrated 1:3; detected with a secondary antibody specific for Fab; A560 nm
[7] = target: T3, IL-13 (antigen captured on the plate in …); test: as above; remark: listed apart in the source
[8] = target: T3, IL-13 (antigen captured on the plate in …); test: ELISA; IL-13 captured on the plate in a limiting amount; Fab titrated 1:3; detected with a secondary antibody specific for Fab; A410 nm
[9] = target: T3, IL-13 (antigen captured on the plate in …); test: ELISA; IL-13 captured on the plate in a limiting amount; Fab titrated 1:3; detected with a secondary antibody specific for Fab; A560 nm; remark: listed apart in the source
[10] = target: T4, mouse IL13 (mouse, UniProt P20109 22-131, limits assumed); test: ELISA on plate-coated E. coli expressed mouse IL13
T4 construct: also called E. coli expressed mouse IL13 (R&D Systems); murine IL13
T4 sequence: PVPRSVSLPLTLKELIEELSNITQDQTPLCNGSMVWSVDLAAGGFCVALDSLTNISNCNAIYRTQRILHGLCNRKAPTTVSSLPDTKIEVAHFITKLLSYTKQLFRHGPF
Method: as §1, §2

Binder	molar stoichiometric ratio (MAb:IL13) for complete inhibition, CD14 and CD23 assays [1]	molar stoichiometric ratio between 228B/C-1 and IL13 for complete inhibition, Stat6 assay [1]	EC50 (read off the curve) [2] [nM]	binding result [3]	EC50 (read off the curve) [4] [ng/mL]	IC50 (read off the curve) [5] [ng/mL]	EC50 (read off the curve) [6] [ng/mL]	EC50 (read off the curve) [7] [ng/mL]	EC50 (read off the curve) [8] [ng/mL]	EC50 (read off the curve) [9] [ng/mL]	binding result [10]
B1	0.5 MAb:IL13 molar ratio	~0.5 MAb:IL13 molar ratio	~0.01	binds	–	–	–	–	–	–	–
B2	–	–	–	–	~7	~90	~10	~4	~20	~7	–
B3	–	–	~0.02	–	–	–	–	–	–	–	no binding
